Source: patent US8217140B2, “Peptides capable of binding to serum proteins and compounds, constructs and polypeptides comprising the same” (Ablynx N.V., priority 2008, dated 2012)

What was measured:
[1] = Chemical stability on storage at 37° C., RP-HPLC; format: physicochemical; conditions: 4 weeks incubation at 37° C. in D-PBS
Procedure: To evaluate the chemical stability of vWF0055, the Nanobody® vWF0055 was stored at 37° C. After 1, 2 and 4 weeks a sample was taken and analyzed for chemical or proteolytic modifications via RP-HPLC (Zorbax 300SB-C3, 4.6×150 mm (5 μm); trifluoroacetic acid/acetonitrile).

HSA = HSA (Homo sapiens, UniProt P02768); assay: Biacore analysis of pH dependency of binding
Procedure: (§1) The pH dependent binding of vWF0055 on HSA and cynoSA was investigated by surface plasmon resonance using a Biacore 3000 instrument by assessing the affinity at three different pH's. In brief, HSA and cynoSA were amine-coupled to a separate CM5 sensor chip at a density of respectively 1800RU and 1900RU. Diluted samples, ranging in concentration between 25 nM to 1 μM vW0055 were prepared in three buffers. The three buffers used contained 50 mM phosphate, 150 mM NaCl and 0.005% surfactant P and were adjusted to either pH5, pH7 or pH8. Samples were injected at a flow-rate of 45 μL/min, association and dissociation were monitored during 120 sec and 300 sec. Binding curves were subsequently used to calculate the KD, association- and dissociation-rate constants with the BiaEvaluation software.

[2] = tested on: platelet adhesion to fibrillar collagen; assay: Perfusion experiments: platelet adhesion to collagen at arterial shear rate; format: cell-based, human
Procedure: The perfusion experiments were performed with a single-pass perfusion chamber under non-pulsatile flow conditions using a modified small perfusion chamber with a slit height of 0.1 mm and a slit width of 2 mm. […] Citrated human blood was preincubated at 37° C. for 5 min with or without addition of test compound, and then perfused through the chamber for 5 min at a wall shear rate of 1600 s^−1 using an infusion/withdrawal pump (pump 22, model 2400-004, Harvard Apparatus, Holliston, Mass.). After the perfusion run, the coverslips were rinsed in Hepes buffered saline (10 mM Hepes, 150 mM NaCl, pH 7.4) and platelets were fixed with 5% glutaraldehyde and stained with May-Grünwald and Giemsa. Platelet deposition of the coverslip was evaluated as platelet surface coverage of 10 randomly chosen pictures using light microscopy (Olympus BX61 microscope using Analysis Five digital imaging solutions analysis software).

[3] = cynomolgus monkey, in vivo
Procedure: The pharmacokinetic profile of the constructs was analyzed in male cynomolgus monkeys of approximately 3 to 4 years old and was compared to the reference (SEQ ID NO:165). The constructs and the control were each injected in three monkeys at a dose of 2 mg/kg via an intravenous bolus injection. Blood samples were taken at predose, 5 min, 20 min, 1 h, 2 h, 4 h, 8 h (test day 1) after administration and at test days 2, 3, 5, 7, 9, 12, 15, 18, 21, 24, 27, 30, 33. In order to obtain at least 1 mL plasma per animal per sampling time, a sufficient volume of whole blood was withdrawn per sampling time. Plasma was collected after whole blood centrifugation for 30 minutes at 2200 g at room temperature (RT). The plasma samples were stored at −80° C. until analysis.
For bioanalytical determination of constructs and control article in monkey plasma, plasma samples were tested for levels of constructs and the control using ELISA based PK assays. The detection of control and constructs in the ELISA assays is based on the binding of these Nanobodies with vWF and the assay set-ups are as such that total vWF-binding Nanobody is detected.
For the reference (SEQ ID NO:165) and the construct of SEQ ID NO:167, 96-well microtiter plates (Maxisorp, Nunc, Wiesbaden, Germany) were coated overnight at 4° C. with neutravidin (Pierce) in 10:10 buffer at 3 μg/ml. Wells were aspirated and blocked for 1 hour at RT with PBS/1% casein. After this blocking step, wells were washed with PBS/0.05% Tween20. A biotinylated bivalent Nanobody against the constructs was added to the neutravidin coated plate at 2 μg/ml in PBS/0.1% casein and incubated for 1 hour at RT. After the incubation step of this capture tool, wells were washed 3 times with PBS/0.05% Tween20.
Preparations of the standards, QC samples and dilutions of the test samples were performed in a non-coated (polypropylene) plate. For the standard curve and QC-samples, solutions at the required concentrations were prepared in PBS/0.1% casein and spiked into 100% monkey plasma. To prepare standards and QC samples, a 1/100 dilution of the pure monkey plasma dilutions was made in IgM-Reducing Agent (Immunochemistry Technologies, Bloomington, USA) supplemented with 2.5% pooled human plasma (referred to as sample diluent). For the test samples, dilution factors for the test samples were estimated, and ranged between 1/100 to 1/9000 for the reference of SEQ ID NO:165 tests and between 1/100 and 12000 for the construct of SEQ ID NO: 167. Samples were diluted 1/100 in sample diluent in a first step, and if needed, further dilution was done in sample diluent supplemented with 1% cynomolgus plasma.
Standards, QC samples and diluted test samples were transferred onto the coated plate and incubated for 1 hour at RT. Afterwards the plates were washed followed by a complexation step with purified vWF (ZLB Behring). vWF diluted to 2.5 μg/ml for the assay for the reference of SEQ ID NO:165 and to 3 μg/ml for the assay for the construct of SEQ ID NO: 167 in PBS/0.1% casein was incubated on the plates for 30 minutes at RT. Plates were washed and Nanobody/vWF complexes bound to the capture tool detected with Rabbit anti-human vWF Ab (Dako, Denmark), diluted 1/2000 in PBS/0.1% casein and incubated for 30 minutes at RT. After washing, a 1/15000 dilution in PBS/0.1% casein of Horse-Radish-Peroxidase labelled goat anti-rabbit Ab (Dako, Denmark) was added to the plate and incubated for 30 minutes at RT. The enzyme coupled to the Ab catalyzes a chemical reaction with the substrate sTMB (3,3′,5,5′-tetramethylbenzidine, SDT reagents, Brussels, Belgium), resulting in a colorimetric change. After stopping this reaction after 10 minutes using HC1 (1N), the intensity of the colour was measured using a spectrophotometer at 450 nm. […]

cynoSA = cynoSA (Macaca fascicularis, UniProt A2V9Z4); assay: Biacore analysis of pH dependency of binding; parameters: species or system cynomolgus monkey
cynoSA, sequence (A2V9Z4 25-608): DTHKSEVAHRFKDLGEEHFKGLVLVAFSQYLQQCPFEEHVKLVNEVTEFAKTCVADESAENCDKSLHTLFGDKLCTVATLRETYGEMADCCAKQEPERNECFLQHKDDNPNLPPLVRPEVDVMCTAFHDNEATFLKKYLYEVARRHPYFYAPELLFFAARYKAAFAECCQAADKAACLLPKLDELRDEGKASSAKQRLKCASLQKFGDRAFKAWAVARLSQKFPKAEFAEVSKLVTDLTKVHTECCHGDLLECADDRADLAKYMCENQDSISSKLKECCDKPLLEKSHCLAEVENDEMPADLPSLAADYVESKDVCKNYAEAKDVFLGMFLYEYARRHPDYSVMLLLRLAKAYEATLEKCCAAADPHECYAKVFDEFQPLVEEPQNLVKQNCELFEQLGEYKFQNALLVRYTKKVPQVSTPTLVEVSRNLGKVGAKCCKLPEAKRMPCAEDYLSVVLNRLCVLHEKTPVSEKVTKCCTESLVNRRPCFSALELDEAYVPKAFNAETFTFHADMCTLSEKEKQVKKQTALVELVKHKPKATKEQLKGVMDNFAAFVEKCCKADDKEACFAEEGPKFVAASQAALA
Procedure: as §1

VWF = assay: Pharmacodynamic profile: ristocetin cofactor activity assay (% RICO) after i.v. administration; format: in vivo, Cynomolgus monkey
Procedure: For the constructs used in Example 14, pharmacodynamic characteristics upon compound administration were measured by means of a ristocetin cofactor activity assay (Biopool). The ristocetin cofactor activity is a functional assay for VWF, measuring the capacity of VWF to interact with the platelet receptor glycoprotein Ib using ristocetin as a modulator.
For pharmacodynamic data analysis, descriptive statistics (mean and SD) were calculated per dose group and per sampling time point using Microsoft Excel 2007. Response parameters and associated statistics for the overall time course were calculated by noncompartmental analysis of the response-time data using WinNonlin Pro 5.1 (Pharsight Corporation, USA; 2006). The non-compartmental analysis was based on a model for pharmacodynamic data (Model 220). The threshold value was set at 20% based on extensive historical PK/PD data on the vWF-0001 compound. Preclinical studies have shown that a complete inhibition of the pharmacodynamic marker are correlated with full antithrombotic efficacy. The following main pharmacodynamic parameters were determined: time below the threshold (Time below T), area under the threshold (AUC below T), time at which the % RICO first drops below the threshold (Tonset), and time at which the % RICO first returns back above the threshold (Toffset).

[4] = threshold 20% RICO, i.v. bolus 2 mg/kg, male Cynomolgus monkey, mean n = 3

B1: 12A2_sv1-AAA-12A2_sv1-9GS-59C2 (protein)
chain: DVQLVESGGGLVQPGGSLRLSCAASGRTFSYNPMGWFRQAPGKGRELVAAISRTGGSTYYPESVEGRFTISRDNAKRTVYLQMNSLRAEDTAVYYCAAAGVRAEQGRVRTLPSEYTFWGQGTQVTVSSAAAEVQLVESGGGLVQPGGSLRLSCAASGRTFSYNPMGWFRQAPGKGRELVAAISRTGGSTYYPESVEGRFTISRDNAKRTVYLQMNSLRAEDTAVYYCAAAGVRAEQGRVRTLPSEYTFWGQGTQVTVSSGGGGSGGGSRDWDFDVFGGGTPVGG
chemical modifications or proteolytic degradation [1]: neither chemical modifications nor proteolytic degradation occurred | decrease of affinity at pH5 (HSA; pH5): about 10 fold | pH at which the highest affinity was observed (HSA; pH5, pH7 or pH8 tested): 7 | Effective concentration compared to VWF0001 ([2]; FIG. 12): similar | inhibition of platelet adhesion to fibrillar collagen at arterial shear rate ([2]; citrated human blood, wall shear rate 1600 s^−1, FIG. 12): dose-dependently and completely inhibit | Vdss lower relative to vWF0001 [3]: 11 fold | dominant half-life (t½ dominant) increase relative to vWF0001 [3]: 85 fold | mean CL decrease compared to the control [3]: 26 fold | AUCinf ([3]; iv, 2 mg/kg): 1590 µg·h/mL | C0 ([3]; iv, 2 mg/kg): 46.5 µg/mL | decrease of affinity at pH5 (cynoSA; pH5): about 10 fold | pH at which the highest affinity was observed (cynoSA; pH5, pH7 or pH8 tested): 7 | Tonset values (VWF; estimated, i.v. application): ~5 min | mean AUC under the threshold increase relative to vWF0001 (VWF; i.v. bolus): 118 fold | time below the threshold increase relative to vWF0001 (VWF; i.v. bolus): 105 fold | AUC below T (VWF; [4]): 781 % RICO * h | Time below T (VWF; [4]): 127 h | Tonset (VWF; time % RICO first drops below threshold, i.v. bolus 2 mg/kg): 0.074 h | Toffset (VWF; time % RICO first returns above threshold, i.v. bolus 2 mg/kg): 127 h
